The values that follow come from patent publication EP4814014A1, “BINDING MOLECULE AND ANTIBODY-DRUG CONJUGATE AND USE THEREOF” (priority 2023, dated 2025).

First the molecules themselves.
B1: zn10A1.m5 (VHH, not shown: small tags and cut ends)
VHH: QVQLVQSGPEVKKPGTSVKVSCKASGRTGSLHAMGWFRQARGQERERVATLNLSDGSAVTADSVKGRFTITTDNSKNSVYMELSSLRSEDTAVYYCTASRSPSGIRYYKPDYWGQGTMVTVSS
B2: zn10A1.m6 (VHH, not shown: small tags and cut ends)
VHH: QVQLVESGGGLVQPGGSLRLSCAASGRTGSLHAMGWFRQAPGKERERVATLNLSDGSAVTADSVKGRFTISTDNSKNSVYLQMNSLRAEDTAVYYCTASRSPSGIRYYKPDYWGQGTLVTVSS
B3: pn10A1.m5 (VHH, not shown: small tags and cut ends)
VHH: QVQLVESGGGLVQAGGSLRLSCAASGRTGSLHAMGWFRQAPGKERERVATLNLSDVSAVTADSVKGRFTISTDNTKNSVYLQMNSLKPEDTAVYYCTASRSPSGIRYYKPDYWGQGTQVTVSS
B4: pn10A1.m2 (VHH, not shown: small tags and cut ends)
VHH: QVQLVESGGGLVQAGGSLRLSCAASGRTGSLHAMGWFRQAPGKERERVATLNLADGSAVTADSVKGRFTISTDNTKNSVYLQMNSLKPEDTAVYYCTASRSPSGIRYYKPDYWGQGTQVTVSS
B5: pn10A1.m3 (VHH, not shown: small tags and cut ends)
VHH: QVQLVESGGGLVQAGGSLRLSCAASGRTGSLHAMGWFRQAPGKERERVATLQLTDGSAVTADSVKGRFTISTDNTKNSVYLQMNSLKPEDTAVYYCTASRSPSGIRYYKPDYWGQGTQVTVSS
B6: pn10A1.m6 (VHH, not shown: small tags and cut ends)
VHH: QVQLVESGGGLVQAGGSLRLSCAASGRTGSLHAMGWFRQAPGKERERVATLNLSDASAVTADSVKGRFTISTDNTKNSVYLQMNSLKPEDTAVYYCTASRSPSGIRYYKPDYWGQGTQVTVSS
B7: pn10A1.m4 (VHH, not shown: small tags and cut ends)
VHH: QVQLVESGGGLVQAGGSLRLSCAASGRTGSLHAMGWFRQAPGKERERVATLNLSEGSAVTADSVKGRFTISTDNTKNSVYLQMNSLKPEDTAVYYCTASRSPSGIRYYKPDYWGQGTQVTVSS
B8: pn10A1.m1 (VHH, not shown: small tags and cut ends)
VHH: QVQLVESGGGLVQAGGSLRLSCAASGRTGSLHAMGWFRQAPGKERERVATLQLSDGSAVTADSVKGRFTISTDNTKNSVYLQMNSLKPEDTAVYYCTASRSPSGIRYYKPDYWGQGTQVTVSS
B9: zn5B10.m18 (VHH, not shown: small tags and cut ends)
VHH: EVQLVESGGGLVQPGGSLRLSCSASGTIIGTYTMAWYRQAPGKQREMVAIITPGGGSHHADSVKGRFTISRDNSKSTVYLQMSSLRAEDTAVYYCNAKARWGTTEYWGQGTLVTVSS
notes: Humanized anti-EGFR VHH-His
B10: zn5B10.m16 (VHH, not shown: small tags and cut ends)
VHH: EVQLVESGGGLVQPGGSLRLSCAASGTIIGTYTMAWYRQAPGKQREMVAIITPGGGSHHADSVKGRFTISRDNSKNTLYLQMNSLRAEDTAVYYCNAKARWGTTEYWGQGTMVTVSS
notes: Humanized anti-EGFR VHH-His
B11: zn5B10.m17 (VHH, not shown: small tags and cut ends)
VHH: EVQLVESGGGLVQPGGSLRLSCAASGTIIGTYTMAWYRQAPGKQREMVAIITPGGGSHHADSVKGRFTISRDNSKNTVYLQMNSLRAEDTAVYYCNAKARWGTTEYWGQGTMVTVSS
notes: Humanized anti-EGFR VHH-His
B12: zn5B10.m20 (VHH, not shown: small tags and cut ends)
VHH: EVQLVESGGGLVQPGGSLRLSCSASGTIIGTYTMAWYRQAPGKQREMVAIITPGGGSHHADSVKGRFTISRDNSKNTLYLQMSSLRAEDTAVYYCNAKARWGTTEYWGQGTLVTVSS
notes: Humanized anti-EGFR VHH-His; also called hu5B10

The assay addresses T1, human EGFR on cells (human, UniProt P00533 25-1210).
T1 construct: whole, on cells; the cell line is named under assay; also called CHO-S-EGFR; CHOK1-huEGFR
Description: FACS, VHH-His on MDA-MB-468 cells. (In general: In flow cytometry, cells or beads pass a laser one at a time.)
On to B1, for which the Maximum MFI value stood at 3480 MFI.
On to B2, for which the Maximum MFI value was determined as 9680 MFI.
Still for that read-out and setting: the value for B3 was 27400 MFI; that for B4 was 3770 MFI.
On the same count and under the same terms, the value for B5 was 5480 MFI.
Same read-out and setting: for B6 the value was 5790 MFI; for B7, 5260 MFI; for B8, 10300 MFI.
Take B9: the EC50 was 1.3 nM and the “Maximum MFI value” came to 71100 MFI.
Consider B10, for which a half-maximal response (EC50) required 3.13 nM and the “Maximum MFI value” stood at 76800 MFI.
On to B11, for which a half-maximal response (EC50) required 23.2 nM and the “Maximum MFI value” stood at 93600 MFI.
Turning to B12, the 50% effective concentration (EC50) was 0.219 nM and the “Maximum MFI value” is 59200 MFI.

The EC50 is the concentration giving half of the maximal effect. Low values mean higher potency in that assay, high ones lower potency in that assay.
